Measured values from patent publication US12502351B2, “Receptor targeting constructs and uses thereof” (Cedars-Sinai Medical Center, priority 2014, dated 2025).

B1: HerPBK10: receptor binding region of heregulin-α (aa 35-239) fused to adenovirus penton base with decalysine tail (protein)
chain: LPPRLKEMKSQESAAGSKLVLRCETSSEYSSLRFKWFKNGNELNRKNKPQNIKIQKKPGKSELRINKASLADSGEYMCKVISKLGNDSASANITIVESNEIITGMPASTEGAYVSSESPIRISVSTEGANTSSSTSTSTTGTSHLVKCAEKEKTFCVNGGECFMVKDLSNPSRYLCKCQPGFTGARCTENVPMKVQNQEKAEELYMRRAAMYEEGPPPSYESVVSAAPVAAALGSPFDAPLDPPFVPPRYLRPTGGRNSIRYSELAPLFDTTRVYLVDNKSTDVASLNYQNDHSNFLTTVIQNNDYSPGEASTQTINLDDRSHWGGDLKTILHTNMPNVNEFMFTNKFKARVMVSRLPTKDNQVELKYEWVEFTLPEGNYSETMTIDLMNNAIVEHYLKVGRQNGVLESDIGVKFDTRNFRLGFDPVTGLVMPGVYTNEAFHPDIILLPGCGVDFTHSRLSNLLGIRKRQPFQEGFRITYDDLEGGNIPALLDVDAYQASLKDDTEQGGGGAGGSNSSGSGAEENSNAAAAAMQPVEDMNDHAIRGDTFATRAEEKRAEAEAAAEAAAPAAQPEVEKPQKKPVIKPLTEDSKKRSYNLISNDSTFTQYRSWYLAYNYGDPQTGIRSWTLLCTPDVTCGSEQVYWSLPDMMQDPVTFRSTRQISNFPVVGAELLPVHSKSFYNDQAVYSQLIRQFTSLTHVFNRFPENQILARPPAPTITTVSENVPALTDHGTLPLRNSIGGVQRVTITDARRRTCPYVYKALGIVSPRVLSSRTFKKKKKKKKKK

Key:
[1] = Tissue distribution in mice with no tumors; format: in vivo, mouse; details: tail vein injection
MDA-MB-435 cells = assay: Cy3-labeled oligonucleotide delivery, confocal immunofluorescence; format: cell-based, human; details: Cy3-labeled oligonucleotide 50 pmol, 1 h at 37° C.
Procedure: HerPBK10 transports a labeled oligonucleotide in MDA-MB-435 cells. To determine whether HerPBK10 can mediate single-stranded oligonucleotide delivery, a Cy3-labeled oligonucleotide (50 pmol) was incubated with HerPBK10 (5 μg) or Lipofectamine 2000 (Invitrogen, Carlsbad, CA, USA), a commercial transfection reagent as a comparative control, in 0.1 M HEPES/Optimem I (Invitrogen; Carlsbad, CA, USA) for 20 minutes at RT. The resulting mixture was added to MDA-MB-435 cells, which express HER, and incubated for 1 h at 37° C. Cells were fixed in 4% PFA for 15′ at RT and processed for immunofluorescence against HerPBK10. Cells were counterstained with DAPI to identify nuclei. Images were acquired using a Leica SP2 laser scanning confocal microscope.

[2] = target: T1, HER3 (human ErbB3 extracellular domain) (Homo sapiens, UniProt P21860); assay: ELISA of HerPBK10 binding to immobilized HER3
T1 construct: an immobilized peptide containing the extracellular domain of human HER3; purchased Prospec
Description: (§1) FIGS. 12A-12C is a group of graphs showing HerPBK10 binds to HER3 and is not inhibited by patient serum. […] Un: no HerPBK10. […] Control samples were bound in bovine serum and receptor-binding verified by competitive inhibition with recombinant heregulin ligand (+Her). N=3. *, p<0.05 compared to control (−Her: no competitive inhibitor).

HER3 [3] = target: T2, HER3 (Homo sapiens, UniProt P21860); assay: ELISA of HerPBK10 binding to HER2+ cells with competitive inhibitors or sera
T2 construct: endogenous in cells
Description: as §1

mouse HER3 = target: T3, mouse HER3 (Mus musculus, UniProt Q61526); assay: Binding of HerPBK10 to 4T1 mouse mammary tumor cells; details: soluble HER3 peptide as competitive inhibitor
T3 construct: endogenous in cells; host or cells: 4T1 mouse mammary tumor cells
Description: FIGS. 13A-13C show the results that HerPBK10 binds to mouse HER3. […] Blue residues indicate amino acid differences. […] N=3. *, p<0.05 compared to HerPBK10 alone

HER3 [4] = target: T2, HER3; details: cells in culture; cited from earlier work
HER2+ tumors = details: cited from earlier work
[5] = repeat dosing, immune-competent mice; cited from earlier work
[6] = test system: human cardiosphere-derived cells (CDCs); assay: Human CDC viability; details: 2 or 5 days exposure

T2 sequence (P21860 20-1342): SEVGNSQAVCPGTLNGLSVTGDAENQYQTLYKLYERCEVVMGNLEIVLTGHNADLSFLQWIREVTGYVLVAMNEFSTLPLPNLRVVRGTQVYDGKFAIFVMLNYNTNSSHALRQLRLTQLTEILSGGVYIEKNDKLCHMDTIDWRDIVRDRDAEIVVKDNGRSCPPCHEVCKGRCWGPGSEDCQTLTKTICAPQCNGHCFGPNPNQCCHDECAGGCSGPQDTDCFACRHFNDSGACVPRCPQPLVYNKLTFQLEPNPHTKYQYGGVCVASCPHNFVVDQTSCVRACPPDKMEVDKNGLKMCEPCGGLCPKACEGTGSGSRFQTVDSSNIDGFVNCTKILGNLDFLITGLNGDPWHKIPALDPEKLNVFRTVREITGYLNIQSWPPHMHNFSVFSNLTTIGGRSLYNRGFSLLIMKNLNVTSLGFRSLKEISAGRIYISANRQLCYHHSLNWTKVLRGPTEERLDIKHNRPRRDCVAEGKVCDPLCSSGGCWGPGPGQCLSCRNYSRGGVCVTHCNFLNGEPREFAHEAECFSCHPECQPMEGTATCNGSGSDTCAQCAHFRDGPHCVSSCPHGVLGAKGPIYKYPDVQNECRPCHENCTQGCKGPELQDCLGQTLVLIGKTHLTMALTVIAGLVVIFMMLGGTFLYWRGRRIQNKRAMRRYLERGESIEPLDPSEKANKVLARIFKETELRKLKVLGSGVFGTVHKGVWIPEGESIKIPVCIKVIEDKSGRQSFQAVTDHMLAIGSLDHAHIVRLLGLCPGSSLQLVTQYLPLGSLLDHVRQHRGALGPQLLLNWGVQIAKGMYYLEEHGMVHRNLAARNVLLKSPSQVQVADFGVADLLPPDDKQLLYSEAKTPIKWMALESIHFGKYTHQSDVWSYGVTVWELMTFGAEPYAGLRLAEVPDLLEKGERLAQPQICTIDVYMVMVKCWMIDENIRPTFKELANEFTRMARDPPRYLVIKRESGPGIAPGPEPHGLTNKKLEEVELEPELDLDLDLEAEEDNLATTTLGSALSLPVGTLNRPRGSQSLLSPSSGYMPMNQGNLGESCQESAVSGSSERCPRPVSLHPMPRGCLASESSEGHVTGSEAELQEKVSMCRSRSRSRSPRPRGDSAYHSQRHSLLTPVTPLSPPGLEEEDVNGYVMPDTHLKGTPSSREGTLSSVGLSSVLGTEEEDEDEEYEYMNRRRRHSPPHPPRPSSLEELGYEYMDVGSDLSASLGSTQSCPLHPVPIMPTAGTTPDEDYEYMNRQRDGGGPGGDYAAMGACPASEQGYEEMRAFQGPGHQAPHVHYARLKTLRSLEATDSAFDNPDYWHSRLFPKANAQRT
T1 sequence (P21860 20-643 limits assumed): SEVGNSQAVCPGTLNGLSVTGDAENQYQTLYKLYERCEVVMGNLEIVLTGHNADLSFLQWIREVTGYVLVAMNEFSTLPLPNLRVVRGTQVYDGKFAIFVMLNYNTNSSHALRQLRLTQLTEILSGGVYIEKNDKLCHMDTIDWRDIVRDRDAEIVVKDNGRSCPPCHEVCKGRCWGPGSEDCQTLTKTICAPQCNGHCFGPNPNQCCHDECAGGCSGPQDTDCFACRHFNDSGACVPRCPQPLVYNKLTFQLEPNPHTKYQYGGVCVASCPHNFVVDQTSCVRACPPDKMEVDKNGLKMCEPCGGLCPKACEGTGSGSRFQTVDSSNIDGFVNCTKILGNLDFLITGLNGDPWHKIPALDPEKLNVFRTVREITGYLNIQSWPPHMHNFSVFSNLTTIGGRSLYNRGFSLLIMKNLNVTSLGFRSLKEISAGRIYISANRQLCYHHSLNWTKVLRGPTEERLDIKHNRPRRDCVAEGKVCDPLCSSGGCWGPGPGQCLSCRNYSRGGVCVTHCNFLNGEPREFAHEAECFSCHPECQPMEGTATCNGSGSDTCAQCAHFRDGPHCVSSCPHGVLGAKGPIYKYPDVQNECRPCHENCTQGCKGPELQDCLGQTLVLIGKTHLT
T3 sequence (Q61526 20-1339): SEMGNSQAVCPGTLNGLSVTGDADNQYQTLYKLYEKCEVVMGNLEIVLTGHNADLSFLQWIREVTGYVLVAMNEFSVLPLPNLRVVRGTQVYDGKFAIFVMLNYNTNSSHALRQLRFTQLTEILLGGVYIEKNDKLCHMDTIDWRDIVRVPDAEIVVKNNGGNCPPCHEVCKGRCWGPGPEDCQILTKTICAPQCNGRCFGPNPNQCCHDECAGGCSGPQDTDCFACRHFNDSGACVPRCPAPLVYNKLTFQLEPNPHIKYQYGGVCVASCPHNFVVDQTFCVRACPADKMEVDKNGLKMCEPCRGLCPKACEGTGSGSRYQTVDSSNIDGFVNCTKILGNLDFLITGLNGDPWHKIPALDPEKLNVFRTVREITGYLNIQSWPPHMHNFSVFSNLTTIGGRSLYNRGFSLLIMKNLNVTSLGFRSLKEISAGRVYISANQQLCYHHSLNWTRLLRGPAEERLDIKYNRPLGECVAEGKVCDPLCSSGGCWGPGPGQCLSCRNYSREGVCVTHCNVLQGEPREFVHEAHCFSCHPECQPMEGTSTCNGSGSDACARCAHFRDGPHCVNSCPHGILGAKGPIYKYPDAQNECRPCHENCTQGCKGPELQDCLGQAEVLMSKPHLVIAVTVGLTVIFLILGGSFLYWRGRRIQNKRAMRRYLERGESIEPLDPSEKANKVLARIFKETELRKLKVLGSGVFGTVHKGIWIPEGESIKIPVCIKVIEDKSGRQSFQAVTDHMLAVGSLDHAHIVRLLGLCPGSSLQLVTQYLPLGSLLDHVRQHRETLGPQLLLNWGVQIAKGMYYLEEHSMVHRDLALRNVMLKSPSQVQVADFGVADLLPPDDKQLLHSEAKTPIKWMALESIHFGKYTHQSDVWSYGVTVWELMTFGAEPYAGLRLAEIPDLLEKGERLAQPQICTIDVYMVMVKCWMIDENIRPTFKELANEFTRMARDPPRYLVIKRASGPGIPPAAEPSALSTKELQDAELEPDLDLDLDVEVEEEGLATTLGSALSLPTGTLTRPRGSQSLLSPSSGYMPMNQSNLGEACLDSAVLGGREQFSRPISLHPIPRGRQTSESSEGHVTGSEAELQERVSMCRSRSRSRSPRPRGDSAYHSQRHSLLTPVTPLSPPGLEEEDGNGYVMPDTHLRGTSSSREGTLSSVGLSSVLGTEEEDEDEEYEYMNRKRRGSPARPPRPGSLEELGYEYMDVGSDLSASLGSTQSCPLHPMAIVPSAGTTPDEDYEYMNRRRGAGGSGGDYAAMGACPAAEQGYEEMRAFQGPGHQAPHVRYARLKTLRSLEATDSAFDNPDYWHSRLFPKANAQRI

Molecule	brain delivery in mice without tumors [1]	oligonucleotide transport into cells (MDA-MB-435 cells)	binding to immobilized HER3 [2]	binding to immobilized HER3 with HER3 block ([2]; pre-incubation with soluble HER3 peptide)	binding with HER4 peptide or betacellulin (HER3 [3]; betacellulin 10 μg/mL)	binding to cellular HER3 with pertuzumab (Pz) (HER3 [3]; heterodimerization-inhibiting antibody)	binding to HER2+ cells in patient serum (HER3 [3]; sera from HER2+ patients and age-matched controls)	binding to human HER3+ cells with HER3 peptide (HER3 [3]; soluble HER3 peptide as competitive inhibitor)	binding to mouse HER3+ cells with HER3 peptide (mouse HER3)	receptor binding with polyclonal antibodies against whole adenovirus (HER3 [4])	dose for tumor growth ablation compared to doxorubicin (HER2+ tumors; HER2+ tumors in mice) [× lower dose]	effect on heart and liver tissue (HER2+ tumors; mouse, in vivo)	immunogenicity (HER2+ tumors; mouse, in vivo)	neutralizing antibody formation [5]	CDC viability [6]
PBK10: recombinant protein derived from the adenovirus capsid penton base with decalysine	no detectable brain delivery														
B1	show brain localization	colocalized with the oligonucleotide during binding and uptake	bind to an immobilized peptide containing the extracellular domain of human HER3	inhibited by pre-adsorption of HerPBK10 with free HER3 peptide	not inhibited by a HER4 peptide or betacellulin	does not prevent HerPBK10 binding to cellular HER3	do not prevent HerPBK10 binding to HER2+ cells in culture	inhibits binding	inhibits binding	do not prevent receptor binding to cells in culture	> 10	sparing heart and liver tissue	no detectable immunogenicity	do not produce detectable neutralizing antibody formation against the protein	no toxic or growth promoting effect on tumor cells or CDCs
